Test results published in paper PMC10349104.
Values joined by “and” are separate entries in the source; they are usually repeats but may differ in a detail not shown here. Equal entries are not always repeated.

Columns and labels:
Assay in all cases: SPR
[1] = biological target: EVA-A(Y44A) (Amblyomma americanum)
[2] = biological target: EVA-A(1-98) (A. americanum)
[3] = biological target: EVA-A(C8) (A. americanum)
[4] = biological target: EVA-A(Y44A) (A. americanum)
[5] = biological target: EVA-A(21-102) (A. americanum)
[6] = biological target: EVA-A(L39P) (Amblyomma americanum)
[7] = biological target: EVA-A(DC) (Amblyomma americanum)
[8] = biological target: EVA-A(L39P) (A. americanum)
[9] = biological target: EVA-A(DN) (Amblyomma americanum)
[10] = biological target: EVA-A(C8) (Amblyomma americanum)

Sequence of CCL13 (Q99616 17-98): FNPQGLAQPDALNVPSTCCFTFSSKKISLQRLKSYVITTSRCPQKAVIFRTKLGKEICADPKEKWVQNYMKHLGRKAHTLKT
Sequence of CCL7 (P80098 24-99): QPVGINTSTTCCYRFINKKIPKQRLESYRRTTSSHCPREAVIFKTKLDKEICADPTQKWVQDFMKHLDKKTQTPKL
Sequence of CCL11 (P51671 24-97): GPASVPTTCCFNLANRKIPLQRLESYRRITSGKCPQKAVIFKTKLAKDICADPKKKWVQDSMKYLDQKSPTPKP
Sequence of CCL8 (P80075 24-99): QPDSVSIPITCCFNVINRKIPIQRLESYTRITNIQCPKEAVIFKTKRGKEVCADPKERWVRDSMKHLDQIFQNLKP

Substance | Kd [1] | Kd [2] [nM] | Kd [3] [nM] | Kd [4] [nM] | koff [4] [s⁻¹] | kon [4] [M⁻¹ s⁻¹] | Kd [5] [nM] | koff [5] [s⁻¹] | kon [5] [M⁻¹ s⁻¹] | Kd [6] | koff [6] | kon [6] | koff [1] | kon [1] | Kd [7] | koff [2] [s⁻¹] | kon [2] [M⁻¹ s⁻¹] | Kd [8] [nM] | koff [8] [s⁻¹] | kon [8] [M⁻¹ s⁻¹] | further results
CCL7 (from UniProt P80098 24-99) (ligand) | 4.63 nM and 5.4 nM and 4.4 nM | 1010 | 765 | – | – | – | – | – | – | – | – | – | – | – | – | – | – | – | – | – | –
CCL8 (from UniProt P80075 24-99) (ligand) | 4.46 nM and 3.95 nM and 2.44 nM | 163 | – | 3.62 | 0.00156 | 474000 | 169 | 0.0344 | 112000 | 2.73 nM and 2.16 nM and 2.89 nM | 0.00242 s⁻¹ and 0.00205 s⁻¹ and 0.00312 s⁻¹ | 884000 M⁻¹ s⁻¹ and 949000 M⁻¹ s⁻¹ and 1.08e+06 M⁻¹ s⁻¹ | 0.00137 s⁻¹ and 0.0015 s⁻¹ and 0.0018 s⁻¹ | 307000 M⁻¹ s⁻¹ and 378000 M⁻¹ s⁻¹ and 737000 M⁻¹ s⁻¹ | 188 nM and 89.1 nM and 212 nM | 0.0344 | 173000 | 2.59 | 0.00218 | 971000 | Kd [9]: 328 nM and 146 nM and 34.1 nM
CCL11 (from UniProt P51671 24-97) (ligand) | 1.67 nM and 1.9 nM and 1.61 nM | 487 | 663 | 1.73 | 0.0015 | 877000 | 507 | 0.218 | 454000 | 3.46 nM and 2.95 nM and 3.55 nM | 0.00417 s⁻¹ and 0.00433 s⁻¹ and 0.00541 s⁻¹ | 1.2e+06 1/(M s) and 1.5e+06 1/(M s) (2×) | 0.00144 s⁻¹ and 0.00137 s⁻¹ and 0.00169 s⁻¹ | 862000 M⁻¹ s⁻¹ and 719000 M⁻¹ s⁻¹ and 1.05e+06 M⁻¹ s⁻¹ | 481 nM and 474 nM and 507 nM | 0.0537 | 101000 | 3.32 | 0.00372 | 1.4e+06 | Kd [10]: 842 nM and 836 nM and 312 nM; koff [7]: 0.0537 s⁻¹ and 0.0345 s⁻¹ and 0.0604 s⁻¹; kon [7]: 112000 M⁻¹ s⁻¹ and 72900 M⁻¹ s⁻¹ and 119000 M⁻¹ s⁻¹; Kd [9]: 750 nM and 383 nM and 390 nM; koff [9]: 0.264 s⁻¹ and 0.203 s⁻¹ and 0.187 s⁻¹; kon [9]: 352000 M⁻¹ s⁻¹ and 531000 M⁻¹ s⁻¹ and 480000 M⁻¹ s⁻¹; koff [3]: 0.196 s⁻¹; kon [3]: 236000 M⁻¹ s⁻¹
CCL11(F11A) (from UniProt P51671 24-97) (ligand) | 2.64 nM and 2.95 nM and 2.91 nM | – | – | 2.83 | 0.00226 | 802000 | – | – | – | 0.424 nM and 0.602 nM and 0.499 nM | 0.000383 s⁻¹ and 0.000365 s⁻¹ and 0.000304 s⁻¹ | 904000 M⁻¹ s⁻¹ and 606000 M⁻¹ s⁻¹ and 610000 M⁻¹ s⁻¹ | 0.00233 1/s (2×) and 0.00213 1/s | 884000 M⁻¹ s⁻¹ and 722000 M⁻¹ s⁻¹ and 801000 M⁻¹ s⁻¹ | – | – | – | 0.51 | 0.00035 | 707000 | –
CCL13 (from UniProt Q99616 17-98) (ligand) | 0.0154 nM and 0.0339 nM and 0.0439 nM | 1.42 | 2.91 | < 0.1 | < 0.0001 | 2.68e+06 | 0.3 | 0.00087 | 2.94e+06 | 0.0116 nM and 0.0158 nM and 0.035 nM | – | 2.5e+06 M⁻¹ s⁻¹ and 4.09e+06 M⁻¹ s⁻¹ and 3.18e+06 M⁻¹ s⁻¹ | 5.53e-05 s⁻¹ and 6.98e-05 s⁻¹ and 0.000105 s⁻¹ | 3.58e+06 M⁻¹ s⁻¹ and 2.06e+06 M⁻¹ s⁻¹ and 2.4e+06 M⁻¹ s⁻¹ | 1.4 nM (2×) and 1.45 nM | 0.00063 | 458000 | < 0.1 | < 0.0001 | 3.26e+06 | Kd [10]: 2.74 nM and 3.26 nM; koff [10]: 0.00454 s⁻¹ and 0.00359 s⁻¹; kon [10]: 1.66e+06 M⁻¹ s⁻¹ and 1.1e+06 M⁻¹ s⁻¹; koff [7]: 0.000625 s⁻¹ and 0.000669 s⁻¹ and 0.000651 s⁻¹; kon [7]: 448000 M⁻¹ s⁻¹ and 461000 M⁻¹ s⁻¹ and 466000 M⁻¹ s⁻¹; Kd [9]: 0.298 nM and 0.304 nM and 0.285 nM; koff [9]: 0.000931 s⁻¹ and 0.000845 s⁻¹ and 0.000833 s⁻¹; kon [9]: 3.12e+06 M⁻¹ s⁻¹ and 2.78e+06 M⁻¹ s⁻¹ and 2.92e+06 M⁻¹ s⁻¹; koff [3]: 0.00423 s⁻¹; kon [3]: 1.47e+06 M⁻¹ s⁻¹
